Results: the DeepSol protein solubility set

Assay: soluble on expression in E. coli; label from the status in PepcDB or PDB records

Sequence | soluble on expression in E. coli
MGSDKIHHHHHHMELEEIVDSERNIHKTIEVLGKGGQGIVYRCLDKDVAIKVVLRDGDFIKDKESLKQYEKSVLNLSFKPIESHFPMSIPLVTLKEKQGYVMKMAEGYEPLKTFLKKPSILENEEKDGIFRINNAIQELCKDNHYMTLSLSYYSQTQGLRSRLKILTHLAKLLFRLQSKGLVYGDLNLNNVFYKDNSAFLIDADNVRYESEKALCVIFTPNYGALEISQTSKNSDTTNYNTMLSDTFSFAIITYELLNMVHPFDGNKADDSVENFIELPWIEDRKDDSNRSCGLLPFFLTRDLKNLLA | not soluble
MNTEKSEKCINVAPSGIRRMKKIHQMEIAQLFEYRRNCLGEKRTAVENVINAKVVAWNLAVVRRRHYFDLHGMTPQGAVDFVAQIVEGRRPGYIKLETGRGNHSKDNIPAIQNRLLQDFGNLSGFQIAIDPSNLGVLILSFQ | not soluble
MAHHHHHHMEYMHHIQGVVVLNDSGNRVFVKYYLNEDMKARGVLTTLEKQRALERVIYDAVSAPKRNWAASKDGDIVLHDVHSILFHVWGSITFAIVGDIKENEMVMHTVLRCIVDALQRILKTQDITHKGILEKYDALVLAVDEVIDDGIVLETSAQNVADDVAPFMADAETDTARSALSKVNEYLKENL | soluble
EVVVRRLSDPVELEEAVEVHARAWGSRDYREVVAPHILRALVDNGGLVLGAFVGGRMVGASYGWFVGCGEGRYFYSHATGVEEGYKYRGVGFALKARQREEVLREGVSLAKWTFDPLQSLNTRFNLAKLGAVYRVYKVNYYGEMTDEINRGLGSDRVVAEWWL | not soluble
MENRGILFDKDGTCIRFDTLWQAGLQACFETLSMLAPHHSAEIKKILAIQEQRFLQKHLLDEVLYQELYQELAQFEELVEQGISSRWLEQFFYDYLRKNLKKIEPIGDLKQLFLELKRKNYKIGLATSDTLPATMLIMEYLGLTEMFDFIATGDRYLPKPDADMLQAFCQSCQLKATEVIMVGDSLVDVFMGTCHGKAGIGVLTGNCQSTDFEKFEVAYFRDIHEIPYQELWENTKKKKIYYF | not soluble
MHHHHHHSSGLVPRGSGMKETAAAKFERQHMDSPDLGTDDDDKAMADIGSEFDMANIAVQRIKREFKEVLKSEETSKNQIKVDLVDENFTELRGEIAGPPDTPYEGGRYQLEIKIPETYPFNPPKVRFITKIWHPNISSVTGAICLDILKDQWAAAMTLRTVLLSLQALLAAAEPDDPQDAVVANQYKQNPEMFKQTARLWAHVYAGAPVSSPEYTKKIENLCAAGFDRNAVIVALSSKSWDVETATELLLSN | soluble
MGSDKIHHHHHHMTLKVTLCDDSKMARKQLLRTLPDDWDAEVHQAEHGEQALTCLREGRAEVLFLDLNMPVKDGYETLQAIKEEQLETLVIVVSGDIQPEAQKRVQALGAMAFVKKPMKPEDIQTLLQQFGLYQPAAGQLKLADETPQAPANPLDVYREVSNVAMGQAGDHLARVLDTFIELPVPNVNFIAPSELHMAIESIDTNKQVAAVSQGFSGSGILGEALTLFNDASIDDIGKLLGAKLGESGSIKQQRIESLMDVASILSSACLNGLGQQLHVEFAASQPVLLGEHQSMRELIKHGEHRWQKILAIEIGYQLPEHKLAFDLLLLFPADAVKILDQQLAHWLQGDDE | not soluble
MAGGGAGDPGLGAAAAPAPETREHLFKVLVIGELGVGKTSIIKRYVHQLFSQHYRATIGVDFALKVLNWDSRTLVRLQLWDIAGQERFGNMTRVYYKEAVGAFVVFDISRSSTFEAVLKWKSDLDSKVHLPNGSPIPAVLLANKCDQNKDSSQSPSQVDQFCKEHGFAGWFETSAKDNINIEEAARFLVEKILVNHQSFPNEENDVDKIKLDQETLRAENKSQCCLEHHHHHH | not soluble
HPKLVSSTPAEGSEGAAPAKIELHFSENLVTQFSGAKLVMTAMPGMEHSPMAVKAAVSGGGDPKTMVITPASPLTAGTYKVDWRAVSSDTFPITGSVTFKVK | soluble
TLKGKTALVTGSTSGIGLGIAQVLARAGANIVLNGFGDPAPALAEIARHGVKAVHHPADLSDVAQIEALFALAEREFGGVDILVNNAGIQHVAPVEQFPLESWDKIIALNLSAVFHGTRLALPGMRARNWGRIINIASVHGLVGSTGKAAYVAAKHGVVGLTKVVGLETATSNVTCNAICPGWVLTPLVQKQIDDRAANGGDPLQAQHDLLAEKQPSLAFVTPEHLGELVLFLCSEAGSQVRGAAWNVDGGWLAQ | soluble
MLSFAPYRFSQVLEHQCTRNGSVLIRHTEEFTSKTCSRCGHIHYSLGGQKIFKCSNCGNHLPRDWNGALGNFLKALWDTTLEHHHHHH | not soluble
MGSDKIHHHHHHMLKVSDLTVGNNFVHNVSFEVNPGERVGIIGESGSGKSLTALSIMGLTDLPTTGQITFNGKPSATFRGTRIAMVFQEPMSALNPLMRIGRQIEEMMTLHGASKKDARARLKSLLIDVSLPERTASAYPHELSGGQRQRALIAMALANDPDLLICDEPTTALDVVVQKQIVDLLLRLTKERGTALLFITHDLGLIARTCERLLVMKSGETVERGDTEAILRSPAHSYTQQLLDASILDQPEIASDSGAPVVIDVEEASKSFKETTALHKVSLAVRKGDLLGIVGGSGSGKTTLLKLIAGLDKPTTGTVAVTGGVQMVFQDPQSSLNPRMKIKDIVAEPLLGWNAAEKTTRVAEVITQVGLSPDVLDRYPHEFSGGQRQRISIARALAIKPAILLADEPVSALDVSVRKQVLDLLQQLVEEYGITLVFVSHDLAVVRHLCTTVWVMEQGRVLEQGPIDSVYDHPQTEYTKELLDAVPRLSL | not soluble
MSEETIEKFEDNVEHQNQDQPVPEGMSKKQLRRQKYKVKWEEKKLVKRAAERIRKKEKRAALKESGDLSKLRKRKDFRTMAQSNSKQRIALDMSFDDLMIEKDQKRTVQQIGWCYTANRHSPDPFQFHVVGFDGPSRKIYDGNEHNLNQDIHLHQEKLENLFKPEEIVYLTSESENVLSDLDDTKVYVIGGIVDHNSQKGLCYRIAQEKGFGHAKLPLDEHLLMKSRRVLTINQVYEILVHYSVHKNWKDALLSIIPERKNAQLKEEVVEEKPESLEEIGKLDTESTDTATGSPKIN | soluble
MGSDKIHHHHHHMDEKGLADCHTPTNGGNQKIKFVNEPNLYRIIFRSNKPEAKQFQDWVFNEVLPTIRKTGKYEAPKPVEKRNYLNNSDMNNIKRLIWTCADHFGHKGSFNQAIWACLRDVTGVPSPAKFEVEHLPVLAEEFKRILNIVQPFLDMQYECQTLLIKRVIRGRADHTVLQALLDNMRNAANQSDNQFKEALQKQLPAMFNQECLNLINRRPNHYDHYEYNERLI | not soluble
MGSDKIHHHHHHMVLLDYHMHSLNSTDAHDEISALCAKAIARGLQEIAVTDHFEPSAGHEEYSEYDGRKYFTEIAEARRRFAGKLSIKSGVELGQPHLFPKYSLQLLEEYPYDYVLGSAHRMPNNVDFGEVRYTPENLAAYCASYLTELKALAQWGHYDCLGHLDLVKRYAAKYRLRANLMDYQEQLAEILRIVIDKGKGIEVNTSGLRQSSQECLPDLDIIRLYKELGGEIITVGSDAHWAEDVGKGIQEGLERLKKAGFKYVSVYTNRQPAMIKIGDKSALFTRGGLSA | not soluble
MHCPFCDTEETKVIDSRLVSDGYQVRRRRECGHCHERFTTFEMAELIIPKIIKTDGTREPFNEDKLRSGIQHALEKRPVSADDVEKAINHIILQLRATGEREVPSKLVGKLAMNELKKLDKVAYIRFASVYLSFDDIDQFTIEIEKLKD | not soluble
